This test has as its target T1, CD25-Fc (UniProt P01589 22-240).
T1 construct: Analyte flowed over the immobilised constructs in SPR (16, 8, 4, 2, 1 nM); also called IL-2Ralpha-Fc; not shown: Fc part of the reagent
T1 sequence (looked up): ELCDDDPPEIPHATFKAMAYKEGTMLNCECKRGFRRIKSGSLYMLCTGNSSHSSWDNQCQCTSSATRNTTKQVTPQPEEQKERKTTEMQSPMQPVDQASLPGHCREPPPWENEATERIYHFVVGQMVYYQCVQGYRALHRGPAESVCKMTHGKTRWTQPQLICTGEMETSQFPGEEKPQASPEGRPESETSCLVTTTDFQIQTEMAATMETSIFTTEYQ
The experiment in a line: SPR (Reichert 4Channel, 25 C): MMP-activated construct immobilised on the chip by amine coupling, CD25-Fc flowed over as analyte.

B1: AK168 after protease cleavage (Fc fusion)
chain: LYHPSGPAPTSSSTKKTQLQLEHLLLDLQMILNGINNYKNPKLTAMLTAKFAMPKKATELKHLQCLEEALKPLEEVLNLAQSKNFHLRPRDLISNINVIVLELKGSETTFMCEYADETATIVEFLNRWITFAQSIISTLT
notes: The fragments present on the SPR chip are not described
Consider B1, for which the binding result is listed as “no binding”.

For the origin of these results see patent US20260115302A1 (XILIO DEVELOPMENT, published 2026).
